Laboratory results from publication PMC9464236, “Biochemical characterization of a disease-causing human osteoprotegerin variant” (Scientific Reports, 2022).
“And” between values parts separate entries of the source, which are not always exact repeats. Equal values may be shown once.

B1: wildtype human osteoprotegerin (WT OPG) (receptor, UniProt O00300 22-401, looked up)
chain: ETFPPKYLHYDEETSHQLLCDKCPPGTYLKQHCTAKWKTVCAPCPDHYYTDSWHTSDECLYCSPVCKELQYVKQECNRTHNRVCECKEGRYLEIEFCLKHRSCPPGFGVVQAGTPERNTVCKRCPDGFFSNETSSKAPCRKHTNCSVFGLLLTQKGNATHDNICSGNSESTQKCGIDVTLCEEAFFRFAVPTKFTPNWLSVLVDNLPGTKVNAESVERIKRQHSSQEQTFQLLKLWKHQNKDQDIVKKIIQDIDLCENSVQRHIGHANLTFEQLRSLMESLPGKKVGAEDIEKTIKACKPSDQILKLLSLWRIKNGDQDTLKGLMHALKHSKTYHFPKTVTQSLKKTIRFLHSFTMYKLYQKLFLEMIGNQVQSVKISCL
notes: Osteoprotegerin (OPG, TNFRSF11B), human; complete open reading frame of full-length human OPG in pcDNA3.4-TOPO; stop codon at position 402; Disulfide-linked dimer; assays used the SEC-purified dimer; also called WT hOPG; hOPG; source: 293-freestyle cells, transiently transfected; purified from medium (heparin Sepharose, Superdex 200)
B2: human osteoprotegerin Stop402Leu mutant with a 19-residue C-terminal appendage (OPG^+19) (receptor)
chain: ETFPPKYLHYDEETSHQLLCDKCPPGTYLKQHCTAKWKTVCAPCPDHYYTDSWHTSDECLYCSPVCKELQYVKQECNRTHNRVCECKEGRYLEIEFCLKHRSCPPGFGVVQAGTPERNTVCKRCPDGFFSNETSSKAPCRKHTNCSVFGLLLTQKGNATHDNICSGNSESTQKCGIDVTLCEEAFFRFAVPTKFTPNWLSVLVDNLPGTKVNAESVERIKRQHSSQEQTFQLLKLWKHQNKDQDIVKKIIQDIDLCENSVQRHIGHANLTFEQLRSLMESLPGKKVGAEDIEKTIKACKPSDQILKLLSLWRIKNGDQDTLKGLMHALKHSKTYHFPKTVTQSLKKTIRFLHSFTMYKLYQKLFLEMIGNQVQSVKISCLLLEMAIELFPHNWRDPMDE
notes: Osteoprotegerin (OPG, TNFRSF11B), human; complete open reading frame, residues up to 401, followed by the read-through appendage; 19-residue appendage 402-420 made by read-through of the mutated stop codon (Stop402Leu); Secreted; Mixture of higher-order oligomers; also called mutant hOPG; mutant OPG; source: 293-freestyle cells, transiently transfected; purified from medium (heparin Sepharose, …)

Key:
[1] = molecular target: the molecule itself; assay: SEC; Superdex 200, 25 mM HEPES pH 7.1, 150 mM NaCl; peak fractions from the heparin Sepharose column; ferritin (440 kDa) and IgG (150 kDa) as markers
[2] = molecular target: T1, recombinant soluble RANKL (sRANKL) (UniProt O35235 139-316); assay: ELISA
T1 chain: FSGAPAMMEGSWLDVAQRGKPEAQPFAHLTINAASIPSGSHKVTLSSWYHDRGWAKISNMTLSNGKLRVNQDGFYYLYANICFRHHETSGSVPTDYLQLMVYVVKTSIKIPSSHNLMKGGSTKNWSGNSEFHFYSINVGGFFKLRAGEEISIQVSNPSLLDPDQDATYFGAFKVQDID

Row | Binder | stoichiometry N [1] | Kd [2] [nM]
1 | B1 | 2 | 4.8
2 | B2 | 12 and 6 and 4 | 4.65
